Assay results as given in paper PMC6962426.

Target: histidine-tagged FcγRIIIa-158V receptor
Assay: Fcγ receptor binding assay
Conditions: read at the highest antibody concentration, x about 0.0014 (axis unit printed as µg/mL); parent: est. 260; read off a plot

Row | Substance | response
1 | IgG1-B (parent) N325D | 55 RU
2 | IgG1-B (parent) N325Q | 17 RU
